This data set deals with the molecule itself. Description: PFO-PAGE.

Where “and” joins values, the source holds several entries; their conditions need not be identical. Equal values may be shown once.

Usually stoichiometry N stands for the number of molecules, sites or subunits per partner or assembly.

B1: eGFP-fused Shaker potassium channel protein (natural protein)
chain: MAAVAGLYGLGEDRQHRKKQQQQQQHQKEQLEQKEEQKKIAERKLQLREQQLQRNSLDGYGSLPKLSSQDEEGGAGHGFGGGPQHFEPIPHDHDFCERVVINVSGLRFETQLRTLNQFPDTLLGDPARRLRYFDPLRNEYFFDRSRPSFDAILYYYQSGGRLRRPVNVPLDVFSEEIKFYELGDQAINKFREDEGFIKEEERPLPDNEKQRKVWLLFEYPESSQAARVVAIISVFVILLSIVIFCLETLPEFKHYKVFNTTTNGTKIEEDEVPDITDPFFLIETLCIIWFTFELTVRFLACPNKLNFCRDVMNVIDIIAIIPYFITLATVVAEEEDTLNLPKAPVSPQDKSSNQAMSLAILRVIRLVRVFRIFKLSRHSKGLQILGRTLKASMRELGLLIFFLFIGVVLFSSAVYFAEAGSENSFFKSIPDAFWWAVVTMTTVGYGDMTPVGVWGKIVGSLCAIAGVLTIALPVPVIVSNFNYFYHRETDQEEMQSQNFNHVTSCPYLPGTLGQHMKKSSLSESSSDMMDLDDGVESTPGLTETHPGRSAVAPFLGAQQQQQQPVASSLSMSIDKQLQHPLQQLTQTQLYQQQQQQQQQQQNGFKQQQQQTQQQLQQQQSHTINASAAAATSGSGSSGLTMRHNNALAVSIETDV
With B1, the “stoichiometry N” value was 2 and 4.

The values are drawn from article PMC10440475 (Heliyon, 2023).
